The target of experiment [1] is T1, human PD-1^ECD-hFc protein (Immunogen A) (human, UniProt Q15116 25-167).
T1 construct: also called PD-1-hFc; hPD-1^ECD-hFc; not shown: human IgG Fc fragment (hFc)
Description: BLI Octet Red 96, biotinylated PD-1ECD-hFc on streptavidin sensor. Here is the method: Dissociation constants were determined by Octed red 96 (Fortiebio). The detailed operation and methods were followed according to the specifications of the instrument provided by the manufacturer. Briefly, a streptavidin sensor (SA sensor, Fortiebio) was used for the affinity determination. […] The reaction mixture was further incubated in PBS buffer (pH7.4) containing 0.1% (v/w) BSA and 0.02% (v/v) Tween20 at 30° C. for 5 minutes. […] The affinity, association and dissociation constants were determined using Octet User software, and the results are shown in Table 12.
Background: In BLI a coated tip is dipped into the sample, and binding shifts an interference pattern.

The target of experiment [2] is T2, cyno PD-1, full length, on CHO-K1 cells (cyno monkey, UniProt B0LAJ3 25-288).
T2 construct: also called CHO-K1-cPD-1; cPD-1
T2 sequence (B0LAJ3 entry or part of it limits assumed): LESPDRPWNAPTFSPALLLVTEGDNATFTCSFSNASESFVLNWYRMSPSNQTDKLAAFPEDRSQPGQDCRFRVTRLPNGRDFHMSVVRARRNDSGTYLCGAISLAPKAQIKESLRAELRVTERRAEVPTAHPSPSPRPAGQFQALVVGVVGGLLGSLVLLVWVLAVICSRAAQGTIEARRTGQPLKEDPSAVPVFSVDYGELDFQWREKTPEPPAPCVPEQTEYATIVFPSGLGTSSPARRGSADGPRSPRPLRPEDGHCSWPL
Description: flow cytometry on CHO-K1-cPD-1 cells. The source says:
CHO-K1 cells were stably transfected with pIRES plasmid containing the nucleic acid sequence encoding full length human PD-1 (see Example 2, step 2) to generate CHO-K1 cells stably expressing human PD-1 (herein referred to as CHO-K1-hPD-1 cells). Other CHO-K1 were stably transfected with pIRES plasmid containing the nucleic acid sequence encoding full length cyno PD-1 to generate CHO-K1 cells stably expressing cyno PD-1 (herein referred to as CHO-K1-cPD-1 cells). CHO-K1-hPD-1 and CHO-K1-cPD-1 cells were cultured and expanded in T-75 culture flasks to 90% confluence. The culture media was aspirated, and the cells were washed twice with HBSS (Hanks Balanced Salt Solution, Invitrogen). The cells were treated with enzyme-free cell dissociation solution (Versene solution, Invitrogen) and collected. The cells were then washed twice with HBSS, cell counts were determined, and cells were resuspended with HBSS at 2×10⁶ cells/mL. Goat serum was added to the cell suspension to a final concentration of 1%, and the cells were blocked for 30 minutes on ice and then washed twice with HBSS. The cells were collected after centrifugation and resuspended in FACS buffer (HBSS+1% BSA, v/v) at 2×10⁶ cells/mL. 100 uL of the cell suspension were then added to each well of 96-well plate. 100 uL of purified anti-PD-1 antibodies from Example 2 were added to each well of the 96-well plate and incubated for 2 hours on ice. […] The samples were washed three times with FACS buffer, and 100 uL fixation buffer (4% paraformaldehyde v/v) were added to each well and incubated for 10 minutes. The cells were then washed twice with FACS buffer and resuspended in 100 uL FACS buffer. The mean fluorescence intensity (MFI) was determined using FACS Calibur (BD), and the results are shown in FIGS. 7-8 and in Tables 10-11.

Experiment [3] addresses T3, human PD-1, full length, on cells (human, UniProt Q15116 25-288).
T3 construct: whole, on cells; in the lymphocyte assays the natural PD-1 of human T cells/PBMCs; also called hPD-1; CHO-K1-hPD-1
Description: flow cytometry on CHO-K1-hPD-1 cells. (In general: Flow cytometry measures light scatter and fluorescence of single cells or particles in a stream.)

Experiment [4] deals with T3, human PD-1, full length, on cells. Description: cell-based or functional assay.
Experiment [5] has the same target. Description: cell-based or functional assay. The source holds these as a separate data set.
The target is the same in experiment [6]. Description: cell-based or functional assay. This is another data set of the same source.
For experiment [7] the target is unchanged. Description: cell-based or functional assay. This is another data set of the same source.

From patent publication US20180214548A1 (SHANGHAI YUNYI HEALTHCARE AND TECHNOLOGY, published 2018) come the findings set out here.

One may read the Kd as the constant that tells how readily two partners part at equilibrium. A higher Kd goes with weaker binding. One may read the koff as the rate constant with which the complex falls apart. Broadly, the kon is the second-order rate constant of association. Low readings indicate slow association, high ones fast association.

T3 sequence (Q15116 25-288): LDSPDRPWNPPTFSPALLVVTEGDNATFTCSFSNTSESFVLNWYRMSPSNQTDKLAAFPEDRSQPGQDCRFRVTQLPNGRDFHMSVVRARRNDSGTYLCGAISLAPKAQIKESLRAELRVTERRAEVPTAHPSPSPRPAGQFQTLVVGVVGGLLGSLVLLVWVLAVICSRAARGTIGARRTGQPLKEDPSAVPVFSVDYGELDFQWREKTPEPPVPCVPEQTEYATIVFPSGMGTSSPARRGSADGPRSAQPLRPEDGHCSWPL
T1 sequence (Q15116 25-167): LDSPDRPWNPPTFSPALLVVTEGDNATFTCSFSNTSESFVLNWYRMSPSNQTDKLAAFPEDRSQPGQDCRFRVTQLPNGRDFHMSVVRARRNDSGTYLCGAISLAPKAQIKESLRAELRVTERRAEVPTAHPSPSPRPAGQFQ

B1: chimeric anti-PD-1 antibody 32B5C7 (antibody, V domains shown)
VH: EVQLLESGGGLVQPGGSLRLSCAASGFTFSSYAMSWVRQAPGKGLEWVSTISGSGGTTYYADSVKGRFTISRDNSKNTLYLQMNSLRAEDTAVYYCTLTGDPDYWGQGTLVTVSS
VL: EIVLTQSPATLSLSPGERATLSCRASQSVSSYLAWYQQKPGQAPRLLIYDASKRATGIPARFSGSGSGTDFTLTISSLEPEDFAVYYCQQRNNWPLTFGGGTKVEIK
On to B1, for which, in experiment [1], the Kd turned out to be 0.045 nM, the koff was 9.64e-06 s⁻¹ and the kon is 212000 M⁻¹ s⁻¹. Also, in experiment [2], the “MFI at 0.0316 nM” value stood at 2.2 MFI, the “MFI at 0.1 nM” value came out at 13.7 MFI, the “MFI at 0.316 nM” value was determined as 25.8 MFI and the “MFI at 1 nM” value is 46.3 MFI. Moreover, in experiment [2], the “MFI at 3.16 nM” value was found to be 89 MFI, the “MFI at 10 nM” value worked out at 174 MFI, the “MFI at 31.6 nM” value is 151 MFI and the “MFI at 100 nM” value was determined as 150 MFI.

B2: fully human anti-PD-1 antibody 32B5C7 (antibody, human IgG4 S228P, kappa, V domains shown)
VH: B1 VH
VL: EIVLTQSPATLSLSPGERATLSCRASQSVSSYLAWYQQKPGQAPRLLIYDASKRATGIPARFSGSGSGTDFTLTISSLEPEDFAVYYCQQRNNWPLTFGGGTKVEIKR
B2: the “MFI at 0.01 nM” value in experiment [3] worked out at 2.8 MFI.

B3: chimeric anti-PD-1 antibody 226C3A7 (antibody, V domains shown)
VH: QVQLQQSGPGLVNPSQTLSLTCAISGDSVSSNSGAWNWIRQSPSRGLEWLGRTYYRSKWYNDYGISVQSRITINPDTSKNHFSLQLNSVTPEDTAVYYCARDPYYYGSGSYFDYWGQGTLVTVSS
VL: EIVMTQSPATLSVSPGERVTLSCRASLSVNSNLAWYQQKPGQAPRLLIYDTSTRATGVPARFSGSGSGTEFTLTISSLQSEDFAVYYCQQYHYWPLTFGGGTKVEIK
As to B3, in experiment [2], the “MFI at 0.0316 nM” value was 3.3 MFI, the “MFI at 0.1 nM” value stood at 3.3 MFI, the “MFI at 0.316 nM” value came to 3.6 MFI and the “MFI at 1 nM” value came out at 5.8 MFI. In addition, in experiment [2], the “MFI at 3.16 nM” value came to 28 MFI, the “MFI at 10 nM” value was 221 MFI, the “MFI at 31.6 nM” value came out at 848 MFI and the “MFI at 100 nM” value came out at 933 MFI.

B4: chimeric anti-PD-1 antibody 76G5B3 (antibody, V domains shown)
VH: QVQLVESGGGVVQPGRSLRLSCAASGFTFSDYGFHWVRQAPGKGLEWVAVIWYDGSNEYYTDSVKGRFTISRDNSKNTLYLQMNSLRAEDTAMYFCVVNPFDYWGQGTLVTVSS
VL: DIQMTQSPSSLSAFVGDRVTITCRASQGINHYLAWYQQKPGKAPNLLILAASTLLSGVPSRFGGRGSGTDFTLIISSLQPEDVATYYCQKYDSAPYTFGQGTKLEIK
Turning to B4, in experiment [4], the “IL-2 release, mixed lymphocyte reaction (PBMC donor-1), antibody 0.001 µg/mL” value was determined as 88.8 pg/mL; the “IL-2 release, mixed lymphocyte reaction (PBMC donor-1), antibody 0.01 µg/mL” value was 131 pg/mL; the “IL-2 release, mixed lymphocyte reaction (PBMC donor-1), antibody 0.1 µg/mL” value was 148 pg/mL; the “IL-2 release, mixed lymphocyte reaction (PBMC donor-1), antibody 1 µg/mL” value was determined as 140 pg/mL. Also, in experiment [5], the “IFN-γ release, mixed lymphocyte reaction (PBMC donor-2), antibody 0.001 µg/mL” value amounted to 1810 pg/mL; the “IFN-γ release, mixed lymphocyte reaction (PBMC donor-2), antibody 0.01 µg/mL” value worked out at 5520 pg/mL; the “IFN-γ release, mixed lymphocyte reaction (PBMC donor-2), antibody 0.1 µg/mL” value was determined as 12700 pg/mL; the “IFN-γ release, mixed lymphocyte reaction (PBMC donor-2), antibody 1 µg/mL” value came to 15900 pg/mL. In addition, in experiment [6], the “IL-2 release, mixed lymphocyte reaction (PBMC donor-2), antibody 0.001 µg/mL” value came out at 93.3 pg/mL; the “IL-2 release, mixed lymphocyte reaction (PBMC donor-2), antibody 0.01 µg/mL” value stood at 145 pg/mL; the “IL-2 release, mixed lymphocyte reaction (PBMC donor-2), antibody 0.1 µg/mL” value was 182 pg/mL; the “IL-2 release, mixed lymphocyte reaction (PBMC donor-2), antibody 1 µg/mL” value is 194 pg/mL. Further, in experiment [7], the “IFN-γ release, mixed lymphocyte reaction (PBMC donor-1), antibody 0.001 µg/mL” value was found to be 2900 pg/mL; the “IFN-γ release, mixed lymphocyte reaction (PBMC donor-1), antibody 0.01 µg/mL” value worked out at 7530 pg/mL; the “IFN-γ release, mixed lymphocyte reaction (PBMC donor-1), antibody 0.1 µg/mL” value is 12100 pg/mL; the “IFN-γ release, mixed lymphocyte reaction (PBMC donor-1), antibody 1 µg/mL” value is 8110 pg/mL. For the same molecule, in experiment [1], binding was put at a Kd of 0.032 nM, the koff turned out to be 1.3e-05 s⁻¹ and the kon turned out to be 408000 M⁻¹ s⁻¹. For the same molecule, in experiment [2], the “MFI at 0.0316 nM” value was 2.3 MFI, the “MFI at 0.1 nM” value is 28.4 MFI, the “MFI at 0.316 nM” value worked out at 59.3 MFI and the “MFI at 1 nM” value was 132 MFI. Besides, in experiment [2], the “MFI at 3.16 nM” value was found to be 217 MFI, the “MFI at 10 nM” value came out at 326 MFI, the “MFI at 31.6 nM” value is 314 MFI and the “MFI at 100 nM” value was found to be 297 MFI.

B5: chimeric anti-PD-1 antibody 204C5E12 (antibody, V domains shown)
VH: QVQLVESGGGVVQPGRSLRLSCAASGFSFSYYGMHWVRQAPGKGLEWVAVIWYDGSNKYYADSVKGRFTISRDNSKNTLYLQMNSLRAEDTAVYYCASGITLVRGADYYYNYDMDVWGQGTTVTVSS
VL: not shown
On to B5, for which, in experiment [2], the “MFI at 0.0316 nM” value came out at 2.9 MFI, the “MFI at 0.1 nM” value was 3.1 MFI, the “MFI at 0.316 nM” value came to 3.1 MFI and the “MFI at 1 nM” value was 5.1 MFI. Also, in experiment [2], the “MFI at 3.16 nM” value came out at 23.4 MFI, the “MFI at 10 nM” value came out at 156 MFI, the “MFI at 31.6 nM” value amounted to 773 MFI and the “MFI at 100 nM” value came out at 944 MFI.

B6: chimeric anti-PD-1 antibody 223G6B5 (antibody, V domains shown)
VH: QVQLQESGPGLVKPSETLSLTCAVSGHSIRGSYFWGWIRQPPGRGLEWIGSIYHSGSTYTNPSLKSRATISVDTSKNQFSLKLNSVTAADTAVYYCARDLDIATTRDYWGQGTLVTVSS
VL: DIQLTQSPSFLSASVGDRVTIICRASQGINNYLAWYQQKPGKAPKLLIYAASTLQSGVPSRFSGSGSGTEFTLTISSLQPEDFATYYCQQLDSYPRTFGQGTKVEIKR
Turning to B6, in experiment [2], the “MFI at 0.1 nM” value was determined as 50.6 MFI, the “MFI at 1 nM” value came out at 475 MFI, the “MFI at 10 nM” value was 2120 MFI and the “MFI at 100 nM” value is 2340 MFI.

B7: chimeric anti-PD-1 antibody 21G8F11 (antibody, V domains shown)
VH: EVQLLESGGGLAQPGGSLRLSCAASGFSFNTYLMHWVRQAPGKGLEWVSAISGGGGNTYYADSVKGRFTISRDNSKNTLYLQMNSLRAEDTAVYYCAKENRIPVAPFDYWGQGTLVTVSS
VL: DIQMTQSPSTLSASVGDRVTITCRASQSISTWLAWYQQKPGKAPKLLIYKASSLESGVPSRFSGSGSGTEFTLTISSLQPDDLATYYCQQYNSFSWTFGQGTKVEIK
For the molecule B7, in experiment [4], the “IL-2 release, mixed lymphocyte reaction (PBMC donor-1), antibody 0.001 µg/mL” value worked out at 33.1 pg/mL; the “IL-2 release, mixed lymphocyte reaction (PBMC donor-1), antibody 0.01 µg/mL” value came out at 48.9 pg/mL; the “IL-2 release, mixed lymphocyte reaction (PBMC donor-1), antibody 0.1 µg/mL” value was found to be 106 pg/mL; the “IL-2 release, mixed lymphocyte reaction (PBMC donor-1), antibody 1 µg/mL” value was found to be 65.6 pg/mL. In experiment [5], the “IFN-γ release, mixed lymphocyte reaction (PBMC donor-2), antibody 0.001 µg/mL” value came to 2090 pg/mL; the “IFN-γ release, mixed lymphocyte reaction (PBMC donor-2), antibody 0.01 µg/mL” value worked out at 2720 pg/mL; the “IFN-γ release, mixed lymphocyte reaction (PBMC donor-2), antibody 0.1 µg/mL” value came out at 2630 pg/mL; the “IFN-γ release, mixed lymphocyte reaction (PBMC donor-2), antibody 1 µg/mL” value was 2830 pg/mL. For the same molecule, in experiment [6], the “IL-2 release, mixed lymphocyte reaction (PBMC donor-2), antibody 0.001 µg/mL” value turned out to be 30 pg/mL; the “IL-2 release, mixed lymphocyte reaction (PBMC donor-2), antibody 0.01 µg/mL” value was 43.4 pg/mL; the “IL-2 release, mixed lymphocyte reaction (PBMC donor-2), antibody 0.1 µg/mL” value is 74.2 pg/mL; the “IL-2 release, mixed lymphocyte reaction (PBMC donor-2), antibody 1 µg/mL” value was 103 pg/mL. In addition, in experiment [7], the “IFN-γ release, mixed lymphocyte reaction (PBMC donor-1), antibody 0.001 µg/mL” value was found to be 3010 pg/mL; the “IFN-γ release, mixed lymphocyte reaction (PBMC donor-1), antibody 0.01 µg/mL” value is 5910 pg/mL; the “IFN-γ release, mixed lymphocyte reaction (PBMC donor-1), antibody 0.1 µg/mL” value was found to be 15300 pg/mL; the “IFN-γ release, mixed lymphocyte reaction (PBMC donor-1), antibody 1 µg/mL” value came to 15200 pg/mL. Moreover, in experiment [2], the “MFI at 0.1 nM” value was 23.4 MFI, the “MFI at 1 nM” value amounted to 156 MFI, the “MFI at 10 nM” value came out at 773 MFI and the “MFI at 100 nM” value was 944 MFI.
